Source: patent US20240398973A1, “ENGINEERED ANTIBODY COMPOUNDS AND CONJUGATES THEREOF” (Eli Lilly and Company, priority 2017, published 2024)
“And” between values parts separate entries of the source, which are not always exact repeats. Identical values can stand only once.

Legend:
human primary PMNs = assay: PMN reactive oxygen species (ROS) production, luminol-amplified chemiluminescence; type: cell-based; settings: for PMN ROS production: relative to 1000 nM fMLF, AUC 5 minutes (Tables 9, 11)
Method: Production of ROS by human primary PMNs is measured using luminol-amplified chemiluminescence. Following isolation, PMNs are suspended at 1×10^6 cells/ml in HBSS containing calcium and magnesium (Gibco #14025-092) supplemented with 0.25% human serum albumin (Gemini Bio producst #800-124) and 50 uM Luminol (SigmaAldrich #123072-2.5G). 100 μl of cell suspension (1×10^5 total cells) is then distributed into each well of a 96-well plate suitable for fluorescence measurement (Greiner #655098) and temperature equilibrated to 37° C. for 5 minutes. Following equilibration, 10× solution of antibody conjugate is applied to the wells, achieving a 1× final concentration.
Immediately after the addition of antibody conjugate, chemiluminescence signal is recorded in a luminometer maintained at 37° C. with 0.01 seconds dwell time per well, 20 seconds total time between sequential plate readings and 45 minutes total run time (PerkinElmer EnVision Multilabel Plate Reader).

[1] = test system: Daudi B lymphoblast cells; assay: PMN-mediated killing of DAUDI tumor cells (xCelligence); type: cell-based, human; settings: 6 hours, mean ± SD, n=4, normalized to Buffer control
Method: (§1) Antibody-targeted killing of tumor cells by PMNs is measured using the xCelligence Real Time Cell Analysis system (ACEA Biosciences). This system monitors cell viability in real time by recording electrical impedance between sensors on the growth surface of culture plates. It reports a normalized cell index (NCI) that is normalized to control cells in parallel wells and allows one to control for relative culture viability. NCIs are measured continuously at 15 minute intervals for 24 hours following incubation of tumor cultures with targeted antibodies and addition of human primary PMNs at a 10:1 PMN to tumor cell ratio. Prior to seeding with tumor cells, xCelligence 96-well E-Plates are calibrated for background signal. Each well receives 50 μl of culture medium (RPMI+10% FBS+antibiotics) and the E-plate is equilibrated to 37° C. in a humidified incubator containing the xCelligence plate reader.
(§2) After equilibration, E-Plate well variations in background are measured. Cultured tumor cell lines are dissociated, counted and diluted to a final density of 1×10^5 cells/ml in culture medium and 100 μl of diluted tumor cells were plated into E-Plate wells. The E-Plate is returned to the xCelligence reader and cell indices are measured in 15 minute intervals overnight to establish baseline.
(§3) The next day, PMNs are isolated from fresh human blood samples and brought to a final density of 2×10^6 cells/ml in culture medium. Following overnight recording, the E-Plate is removed from the xCelligence reader and 22 μl of 10× antibody solution or buffer is added to designated wells. After 15 minutes, 50 μl of diluted PMNs (1×10^5 total cells) or buffer was added to designated wells. Immediately after PMN addition, the E-Plate is returned to the xCelligence reader and cell indices were measured for up to 72 hours. After completion of the experiment, cell indices are normalized (NCI) to the time point immediately preceding the addition of antibodies.
(§4) Percent NCI is defined as ((NCI of sample)/(NCI of Tumor Cells Alone)×100). For non-adherent tumor cells (Daudi cells), the xCelligence Immunotherapy Kit-B Cell Killing Assay (ACEA #8100004) is used to tether the tumor cells to E-Plate wells according to manufacturer protocols. Following tethering and background acquisition, the protocols are performed as indicated above.
Non-adherent, CD20+ Daudi B lymphoblast cells are immobilized with xCelligence Immunotherapy Kit (ACEA #8100004) to tether the tumor cells to E-Plate wells according to manufacturer protocols, and are exposed to conditions shown below in Table 16. Percent NCI values represent relative viability of DAUDI cells following 6 hours of exposure to the stated conditions. Values are given as mean percentage normalized to “Buffer control” ±SD; n=4 for all conditions. Statistical significance was determined by one-way ANOVA followed by post-hoc Dunnett's multiple comparisons test vs “+PMN”.

[2] = test system: A549 human lung carcinoma cells; assay: PMN-mediated killing of A549 tumor cells (xCelligence); type: cell-based; settings: 2 hours, mean ± SD, n=4
Method: as §1, §2, §3, §4
Adherent MET(+) A549 human lung carcinoma cells are plated for approximately 24 hours, then incubated with Emibetuzumab-G4-fMLFK-HC-124C-375C or emibetuzumab-G4-UC-HC-124C-375C and exposed to primary human PMNs at 10:1 effector to target cell ratio.
Percent NCI values represent relative viability of A549 cells following 2 hours of exposure to the stated conditions. Values are given as mean percentage normalized to “+PMN” control±SD; n=4 for all conditions. Statistical significance was determined by one-way ANOVA followed by post-hoc Dunnett's multiple comparisons test vs “+PMN”. NCI, normalized cell index; PMN, primary human polymorphonuclear neutrophils; ns, not significant.

B1: AME133-G1(IQ)-UC-HC-124C-378C: unconjugated AME133 (anti-CD20) IgG1(IQ) with HC 124C and 378C; HC SEQ ID NO:8, LC SEQ ID NO:9 (antibody)
heavy: EVQLVQSGAEVKKPGESLKISCKGSGRTFTSYNMHWVRQMPGKGLEWMGAIYPLTGDTSYNQKSKLQVTISADKSISTAYLQWSSLKASDTAMYYCARSTYVGGDWQFDVWGKGTTVTVSSASTKGPCVFPLAPSSKSTSGGTAALGCLVKDYFPEPVTVSWNSGALTSGVHTFPAVLQSSGLYSLSSVVTVPSSSLGTQTYICNVNHKPSNTKVDKKVEPKSCDKTHTCPPCPAPELLGGPSVFLFPPKIKDTLMISRTPEVTCVVVDVSHEDPEVKFNWYVDGVEVHNAKTKPREEQYNSTYRVVSVLTVLHQDWLNGKEYKCKVSNKALPAPIEKTISKQKGQPREPQVYTLPPSRDELTKNQVSLTCLVKGFYPSDICVEWESNGQPENNYKTTPPVLDSDGSFFLYSKLTVDKSRWQQGNVFSCSVMHEALHNHYTQKSLSLSPG
light: EIVLTQSPGTLSLSPGERATLSCRASSSVPYIHWYQQKPGQAPRLLIYATSALASGIPDRFSGSGSGTDFTLTISRLEPEDFAVYYCQQWLSNPPTFGQGTKLEIKRTVAAPSVFIFPPSDEQLKSGTASVVCLLNNFYPREAKVQWKVDNALQSGNSQESVTEQDSKDSTYSLSSTLTLSKADYEKHKVYACEVTHQGLSSPVTKSFNRGEC
modifications: SITE 128 THIOETH - position 128 is cysteine residue modified by thioether bond formation to maleimide-polyethylene glycol (PEG) linker; SITE 382 THIOETH - position 382 is cysteine residue modified by thioether bond formation to maleimide-polyethylene glycol (PEG) linker
With B1 as the molecule, how does the “PMN ROS production” value (human primary PMNs; 1 nM) read?
The value was 10.3 percentage.

And the “PMN ROS production” value (human primary PMNs; 3 nM)?
Its value is 10.6 percentage.

And the “PMN ROS production” value (human primary PMNs; 10 nM)?
Its value is 10.6 percentage.

And the “PMN ROS production” value (human primary PMNs; 30 nM)?
Its value is 10.5 percentage.

What about the “PMN ROS production” value (human primary PMNs; 100 nM) of the same molecule?
Its value is 10.3 percentage.

What about the “PMN ROS production, Exposure: Buffer” value (human primary PMNs; 300 nM, Buffer, relative to fMLF, AUC 5 minutes (Table 12a)) of the same molecule?
The value was 25.3 percentage.

And the “PMN ROS production, Exposure: Cyclosporin H” value (human primary PMNs; 300 nM, PMNs pre-incubated with 1 uM Cyclosporin H for 30 minutes, relative to fMLF (Table 12a))?
Its value is 19.7 percentage.

What about the “PMN ROS production” value (human primary PMNs; 300 nM) of the same molecule?
The value was 11.4 percentage.

And the “PMN ROS production” value (human primary PMNs; 1000 nM)?
Its value is 13.9 percentage.

And the “Percent NCI” value ([1]; 10 nM + PMN)?
The value was 58.7 ± 13.2%.

And the “Percent NCI” value ([1]; 10 nM without PMN)?
The value was 97.7 ± 1.4%.

What about the “Percent NCI” value ([1]; 30 nM + PMN) of the same molecule?
Its value is 93.4 ± 22.4%.

What about the “Percent NCI” value ([1]; 30 nM without PMN, listed as AME133-G1(IQ)-UC-124C-378C) of the same molecule?
The value was 97.3±1.2% and 97.3 ± 0.6%.

What about the “Percent NCI” value ([1]; 100 nM + PMN) of the same molecule?
The value was 114 ± 6.9%.

What about the “Percent NCI” value ([1]; 100 nM without PMN) of the same molecule?
Its value is 90.9 ± 0.6%.

And the “Percent NCI” value ([1]; 300 nM + PMN)?
Its value is 113.2 ± 7.2%.

And the “Percent NCI” value ([1]; 300 nM without PMN)?
Its value is 87.7 ± 1.5%.

B2: Emibetuzumab-G4(PAA)-UC-HC-124C-375C: unconjugated emibetuzumab IgG4(PAA) with HC 124C and 375C; HC SEQ ID NO:4, LC SEQ ID NO:5 (antibody)
heavy: QVQLVQSGAEVKKPGASVKVSCKASGYTFTDYYMHWVRQAPGQGLEWMGRVNPNRRGTTYNQKFEGRVTMTTDTSTSTAYMELRSLRSDDTAVYYCARANWLDYWGQGTTVTVSSASTKGPCVFPLAPCSRSTSESTAALGCLVKDYFPEPVTVSWNSGALTSGVHTFPAVLQSSGLYSLSSVVTVPSSSLGTKTYTCNVDHKPSNTKVDKRVESKYGPPCPPCPAPEAAGGPSVFLFPPKPKDTLMISRTPEVTCVVVDVSQEDPEVQFNWYVDGVEVHNAKTKPREEQFNSTYRVVSVLTVLHQDWLNGKEYKCKVSNKGLPSSIEKTISKAKGQPREPQVYTLPPSQEEMTKNQVSLTCLVKGFYPCDIAVEWESNGQPENNYKTTPPVLDSDGSFFLYSRLTVDKSRWQEGNVFSCSVMHEALHNHYTQKSLSLSLG
light: DIQMTQSPSSLSASVGDRVTITCSVSSSVSSIYLHWYQQKPGKAPKLLIYSTSNLASGVPSRFSGSGSGTDFTLTISSLQPEDFATYYCQVYSGYPLTFGGGTKVEIKRTVAAPSVFIFPPSDEQLKSGTASVVCLLNNFYPREAKVQWKVDNALQSGNSQESVTEQDSKDSTYSLSSTLTLSKADYEKHKVYACEVTHQGLSSPVTKSFNRGEC
modifications: SITE 122 THIOETH - position 122 is cysteine residue modified by thioether bond formation to maleimide-polyethylene glycol (PEG) linker; SITE 370 THIOETH - position 370 is cysteine residue modified by thioether bond formation to maleimide-polyethylene glycol (PEG) linker
Which “Percent NCI” value ([2]; A549, 3 nM + PMN) does the source give for B2 here?
Its value is 102.3 ± 1.7%.

What about the “Percent NCI” value ([2]; A549, 3 nM without PMN) of the same molecule?
The value was 101.3 ± 0.7%.

And the “Percent NCI” value ([2]; A549, 10 nM + PMN)?
Its value is 102.5 ± 1.9%.

What about the “Percent NCI” value ([2]; A549, 10 nM + PMN, listed as emibetuzumab-G4-UC-HC-124C-375C) of the same molecule?
Its value is 102.5±1.9%.

And the “Percent NCI” value ([2]; A549, 10 nM without PMN)?
Its value is 100.8 ± 1%.

What about the “Percent NCI” value ([2]; A549, 30 nM + PMN) of the same molecule?
Its value is 102.7 ± 1.5%.

What about the “Percent NCI” value ([2]; A549, 30 nM without PMN) of the same molecule?
The value was 100.1 ± 0.9%.

What about the “Percent NCI” value ([2]; A549, 100 nM + PMN) of the same molecule?
The value was 102.9 ± 1.5%.

What about the “Percent NCI” value ([2]; A549, 100 nM without PMN) of the same molecule?
The value was 100.8 ± 1.4%.

And the “Percent NCI” value ([2]; A549, 300 nM + PMN)?
The value was 102.3 ± 1.8%.

And the “Percent NCI” value ([2]; A549, 300 nM without PMN)?
The value was 102.8 ± 4.9%.
